Ka, dH and stoichiometry N data for 14 substances are collected here from publication PMC5429695.

For one assay, the target named is RfDoc1a, group 1a dockerin, thioredoxin A fusion, wild type (R. flavefaciens FD-1). Put plainly: ITC; 308 K; dockerin in the cell (stirred at 307 revolutions/min) titrated with 28 injections of 10 uL cohesin at 220 s intervals; proteins in 50 mM HEPES pH 7.5, 0.5 mM CaCl2, 0.5 mM TCEP; single-site model. In general terms: In ITC the heat of successive injections is recorded.
One may read the stoichiometry N as the number of molecules, sites or subunits per partner or assembly. For the substance “RfCohScaB3 N75A + H121A, C-terminal hexa-histidine tag (domain or fragment)”, the Ka was 2.49e+06 M⁻¹, the dH is -50.8 kcal/mol and the stoichiometry N came out at 1.

On to “RfCohScaA, ScaA cohesin with C-terminal hexa-histidine tag (domain or fragment)”, for which the Ka was found to be 5.03e+08 M⁻¹, the dH was -38.9 kcal/mol and the stoichiometry N came out at 1.

On to “RfCohScaB3 N68A, C-terminal hexa-histidine tag (domain or fragment)”, for which the Ka was determined as 1.1e+08 M⁻¹, the dH was -58.6 kcal/mol and the stoichiometry N is 1.

Regarding “RfCohScaB3 H121A + N124A, C-terminal hexa-histidine tag (domain or fragment)”, the Ka turned out to be 2.28e+06 M⁻¹, the dH was -46.4 kcal/mol and the stoichiometry N is 1.

“RfCohScaB3 E84A + N124A, C-terminal hexa-histidine tag (domain or fragment)”: the Ka was determined as 1.53e+07 M⁻¹, the dH was -55 kcal/mol and the stoichiometry N came to 1.

For the substance “RfCohScaB3 L79A, C-terminal hexa-histidine tag (domain or fragment)”, the Ka was 7.59e+06 M⁻¹, the dH is -51.9 kcal/mol and the stoichiometry N was found to be 1.

In the case of “RfCohScaB3 N75A, C-terminal hexa-histidine tag (domain or fragment)”, the Ka is 9.09e+07 M⁻¹, the dH was -52.7 kcal/mol and the stoichiometry N came to 1.

Take “RfCohScaB3 N75A + E84A, C-terminal hexa-histidine tag (domain or fragment)”: the Ka stood at 2.08e+07 M⁻¹, the dH is -51.8 kcal/mol and the stoichiometry N stood at 1.

On to “RfCohScaB3 H121A, C-terminal hexa-histidine tag (domain or fragment)”, for which the Ka is 2.66e+07 M⁻¹, the dH is -52.6 kcal/mol and the stoichiometry N was 1.

As for “RfCohScaB3 E84A + H121A, C-terminal hexa-histidine tag (domain or fragment)”, the Ka amounted to 1.65e+06 M⁻¹, the dH was -66.9 kcal/mol and the stoichiometry N is 1.

For the substance “RfCohScaB3 K77A, C-terminal hexa-histidine tag (domain or fragment)”, the Ka was 4.23e+08 M⁻¹, the dH was -57.4 kcal/mol and the stoichiometry N was 1.

Regarding “RfCohScaB3 N124A, C-terminal hexa-histidine tag (domain or fragment)”, the Ka came to 5.54e+07 M⁻¹, the dH is -52.8 kcal/mol and the stoichiometry N amounted to 1.

For “RfCohScaB3 E84A, C-terminal hexa-histidine tag (domain or fragment)”, the Ka worked out at 3.62e+07 M⁻¹, the dH is -55.5 kcal/mol and the stoichiometry N worked out at 1.

In the case of “RfCohScaB3 N75A + N124A, C-terminal hexa-histidine tag (domain or fragment)”, the Ka turned out to be 1.86e+06 M⁻¹, the dH is -56.3 kcal/mol and the stoichiometry N came out at 1.

For a further assay, the target named is RfDoc1b, group 1b dockerin, thioredoxin A fusion, wild type (R. flavefaciens FD-1). The assay is described as above.
As to “RfCohScaA, ScaA cohesin with C-terminal hexa-histidine tag (domain or fragment)”, the Ka amounted to 2.67e+07 M⁻¹, the dH is -61.2 kcal/mol and the stoichiometry N turned out to be 1.
